Data published in the supplement of paper PMC7125110.
± gives the standard error. For some of these results: This sample holds only a part of the variants without activity.

B1: glmS ribozyme (parent)
chain: AUAAAAGCGCCAGAACUACAGAAAUGUAGUUGACGAGGAGGAGGUUUAUCGAAUUUUCGGCGGAUGCCUCCAAA

Key:
Details in all cases: with glucosamine-6-phosphate
[1] = variants of: B1; assay: kcat; higher = faster cleavage; RNA array
How it was run: (§1)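 kcat and KM were obtained from weighted Michaelis–Menten fits across concentrations of kobs values. Those came from one- or two-exponential decay fits to per-tile medians normalised to baseline and to non-cleaving reference variants. The variants were barcoded ribozymes transcribed in situ by E. coli RNA polymerase on sequenced MiSeq chips and tracked through a hybridised Cy3 probe at 37 °C, with 40 μM to 10 mM glucosamine-6-phosphate in HEPES/KCl/Mg(OAc)2 buffer flowed in.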

[2] = variants of: B1; assay: KM; higher = weaker cofactor use; RNA array
How it was run: as §1

[3] = variants of: B1; assay: self-cleavage kobs at 160 uM GlcN6P; higher = faster cleavage; RNA array
How it was run: as §1

[4] = variants of: B1; assay: self-cleavage kobs at 640 uM GlcN6P; higher = faster cleavage; RNA array
How it was run: as §1

[5] = variants of: B1; assay: self-cleavage kobs at 2500 uM GlcN6P; higher = faster cleavage; RNA array
How it was run: as §1

[6] = variants of: B1; assay: self-cleavage kobs at 10000 uM GlcN6P; higher = faster cleavage; RNA array
How it was run: as §1

[7] = variants of: B1; assay: self-cleavage kobs at 40 uM GlcN6P; higher = faster cleavage; RNA array
How it was run: as §1

Row | Variant | kcat [1] [s⁻¹] | KM [2] [mM] | self-cleavage kobs at 160 uM GlcN6P [3] [s⁻¹] | self-cleavage kobs at 640 uM GlcN6P [4] [s⁻¹] | self-cleavage kobs at 2500 uM GlcN6P [5] [s⁻¹] | self-cleavage kobs at 10000 uM GlcN6P [6] [s⁻¹] | self-cleavage kobs at 40 uM GlcN6P [7] [s⁻¹]
1 | A14C U56C | 0.000932 ± 0.00029 | 4.28 ± 2 | 3.09e-05 ± 1.5e-05 | 0.00014 ± 1.8e-05 | 0.000275 ± 4.5e-05 | 0.000754 ± 0.00012 | 
2 | A14C U30G | 0.00408 ± 0.001 | 5.38 ± 1.8 | 0.000107 ± 2e-05 | 0.000417 ± 7.1e-05 | 0.00127 ± 0.00034 | 0.00267 ± 0.00036 | 5.32e-05 ± 1.3e-05
3 | G13U G37U | < 1e-05 |  |  | < 1e-05 |  | < 1e-05 | 
4 | G13C A39U | 6.85e-05 ± 4.7e-06 | 4.18 ± 0.82 |  |  | 2.64e-05 ± 1e-05 | 4.82e-05 ± 7.1e-06 | < 1e-05
5 | G13C A39G | 0.000183 ± 2.5e-05 | 4.23 ± 1.3 |  |  | 7.1e-05 ± 1.4e-05 | 0.000128 ± 2e-05 | 
6 | G13U A39U | 0.0016 ± 0.0003 | 4.77 ± 1.4 | 4.9e-05 ± 1.9e-05 | 0.000197 ± 3.6e-05 | 0.000513 ± 8.1e-05 | 0.00112 ± 0.00016 | 3.33e-05 ± 1.6e-05
7 | A14C G51A A53U G59U C68U | 3.12e-05 ± 1.2e-05 |  |  |  |  |  | 
8 | G13U U31C | 0.000427 ± 1.8e-05 | 1.04 ± 0.11 | 4.8e-05 ± 2.1e-05 | 0.00017 ± 2.8e-05 | 0.000297 ± 3.8e-05 | 0.000387 ± 5.1e-05 | 
9 | G13U U31G | 0.000294 ± 0.0001 |  | 2.89e-05 ± 1.3e-05 | 4.24e-05 ± 8.5e-06 | 0.000226 ± 2.7e-05 | 0.000207 ± 2.6e-05 | 
10 | A14C A48G | < 1e-05 | 1.04 ± 0.2 |  | < 1e-05 |  |  | 
11 | A14G U31G | 0.00752 ± 0.0003 | 2.12 ± 0.14 | 0.000539 ± 9.8e-05 | 0.00175 ± 0.00031 | 0.0039 ± 0.00067 | 0.00635 ± 0.00094 | 
12 | G13U G66U | 3.6e-05 ± 2.5e-06 | 3.58 ± 0.63 |  |  |  | 2.65e-05 ± 1.1e-05 | 
13 | A14C A53C | 0.00124 ± 0.00016 | 2.55 ± 0.49 | 6.39e-05 ± 1e-05 | 0.000267 ± 3.4e-05 | 0.000659 ± 7.9e-05 | 0.000924 ± 0.00013 | 2.58e-05 ± 1.2e-05
14 | G13U A14G | 0.00536 ± 0.0022 |  | 0.00019 ± 7.3e-05 | 0.00104 ± 0.00019 | 0.00171 ± 0.00049 | 0.00495 ± 0.00073 | 0.000124 ± 2e-05
15 | G13U U55A | 0.00182 ± 0.00037 | 3.54 ± 1.2 | 8.82e-05 ± 1.7e-05 | 0.000214 ± 4e-05 | 0.000853 ± 0.00015 | 0.00135 ± 0.00013 | 3.28e-05 ± 7.2e-06
